Data: patent US11339383B2, “G proteins” (HEPTARES THERAPEUTICS LIMITED, priority 2016, dated 2022)

What was measured:
[1] = Thermostability of GDP-bound mini G proteins by differential scanning fluorimetry (DSF); format: physicochemical; conditions: for Mini Gs basal Tm (GDP-bound state, DSF): 1 mM GDP, SYPRO-orange, no receptor; for Stability measured by DSF: mini-G protein alone, GDP-bound
Experimental: SYPRO-orange (15 μl) was added from a 20× stock solution to give a final concentration of 2×. Samples were mixed and 2×50 μl aliquots (duplicates) were transferred to 0.2 ml PCR tubes (Qiagen). Thermostability measurements were performed using a Rotor-Gene Q (Qiagen). Samples were equilibrated for 90 s at 25° C. before ramping from 25 to 99° C. at 4 s/° C. The melting temperature (Tm), corresponding to the inflection point of the curve, was derived from analysis using the Rotor-Gene Q software. Tm values were calculated as the mean±SEM from three independent experiments.
(§1) For constructs see FIGS. 29 and 35-37. Expression, purification and stability measurements by differential scanning fluorimetry (DSF) of the mini-G proteins as well as the non-lipidated Gβ1γ2 dimer, were performed following the protocols described in Example 1. The stability of mini-G proteins was also determined in detergent using native DSF (NanoTemper Prometheus). Mini-G proteins (2 mg/ml) in 50 mM HEPES pH 7.5 (KOH), 20 mM MgCl2, 50 mM NaCl, 1 μM GDP were mixed with either no detergent (control), 0.1% LMNG or 0.1% DDM. Samples were incubated on ice (minimum 30 min) prior to heating on the Prometheus (20% excitation, 15° C.-85° C., rate of 2.0° C./min) and the onset of scattering determined.

[2] = Stability of mini-G proteins in detergent by native DSF; format: physicochemical; conditions: 2 mg/ml, onset of scattering
Experimental: as §1

B1: Mini Gs199: mini Gs, Gly8 linker, switch III deleted, G49D E50N A249D S252D L272D (protein)
chain: MGHHHHHHANKKIEKQLQKDKQVYRATHRLLLLGADNSGKSTIVKQMRILHGGGGGGGGTSGIFETKFQVDKVNFHMFDVGGQRDERRKWIQCFNDVTAIIFVVDSSDYNRLQEALNDFKSIWNNRWLRTISVILFLNKQDLLAEKVLAGKSKIEDYFPEFARYTTPEDATPEPGEDPRVTRAKYFIRDEFLRISTASGDGRHYCYPHFTCAVDTENIRRVFNDCRDIIQRMHLRQYELL
modifications: MINI GS199
notes: mini Gs, Gly8 linker, switch III deleted, G49D E50N A249D S252D L272D
Mini Gs basal Tm (GDP-bound state, DSF) [1]: 72.5 ± 0.0 (n = 3) ° C.

B2: Mini Gs352: mini Gs199 with L63Y-I372A (protein)
chain: MGHHHHHHANKKIEKQLQKDKQVYRATHRLLLLGADNSGKSTIVKQMRIYHGGGGGGGGTSGIFETKFQVDKVNFHMFDVGGQRDERRKWIQCFNDVTAIIFVVDSSDYNRLQEALNDFKSIWNNRWLRTISVILFLNKQDLLAEKVLAGKSKIEDYFPEFARYTTPEDATPEPGEDPRVTRAKYFIRDEFLRISTASGDGRHYCYPHFTCAVDTENARRVFNDCRDIIQRMHLRQYELL
modifications: MINI GS352
notes: mini Gs199 with L63Y-I372A
Mini Gs basal Tm (GDP-bound state, DSF) [1]: 64.7 ± 0.1 (n = 3) ° C.

B3: Mini GS303: mini Gs199 with V375I (protein)
chain: MGHHHHHHANKKIEKQLQKDKQVYRATHRLLLLGADNSGKSTIVKQMRILHGGGGGGGGTSGIFETKFQVDKVNFHMFDVGGQRDERRKWIQCFNDVTAIIFVVDSSDYNRLQEALNDFKSIWNNRWLRTISVILFLNKQDLLAEKVLAGKSKIEDYFPEFARYTTPEDATPEPGEDPRVTRAKYFIRDEFLRISTASGDGRHYCYPHFTCAVDTENIRRIFNDCRDIIQRMHLRQYELL
modifications: MINI GS303
notes: mini Gs199 with V375I
Mini Gs basal Tm (GDP-bound state, DSF) [1]: 70.3 ± 0.0 (n = 3) ° C.

B4: Mini Gs254: mini Gs199 with M60A (protein)
chain: MGHHHHHHANKKIEKQLQKDKQVYRATHRLLLLGADNSGKSTIVKQARILHGGGGGGGGTSGIFETKFQVDKVNFHMFDVGGQRDERRKWIQCFNDVTAIIFVVDSSDYNRLQEALNDFKSIWNNRWLRTISVILFLNKQDLLAEKVLAGKSKIEDYFPEFARYTTPEDATPEPGEDPRVTRAKYFIRDEFLRISTASGDGRHYCYPHFTCAVDTENIRRVFNDCRDIIQRMHLRQYELL
modifications: MINI GS254
notes: mini Gs199 with M60A
Mini Gs basal Tm (GDP-bound state, DSF) [1]: 70.3 ± 0.0 (n = 3) ° C.

B5: Mini Gs345: mini Gs199 with I372A-V375I; detergent stabilised construct (protein)
chain: MGHHHHHHANKKIEKQLQKDKQVYRATHRLLLLGADNSGKSTIVKQMRILHGGGGGGGGTSGIFETKFQVDKVNFHMFDVGGQRDERRKWIQCFNDVTAIIFVVDSSDYNRLQEALNDFKSIWNNRWLRTISVILFLNKQDLLAEKVLAGKSKIEDYFPEFARYTTPEDATPEPGEDPRVTRAKYFIRDEFLRISTASGDGRHYCYPHFTCAVDTENARRIFNDCRDIIQRMHLRQYELL
modifications: MINI GS345
notes: mini Gs199 with I372A-V375I; detergent stabilised construct
Mini Gs basal Tm (GDP-bound state, DSF) [1]: 65.4 ± 0.1 (n = 3) ° C.

B6: Mini Gs340: mini Gs199 with I372A (protein)
chain: MGHHHHHHANKKIEKQLQKDKQVYRATHRLLLLGADNSGKSTIVKQMRILHGGGGGGGGTSGIFETKFQVDKVNFHMFDVGGQRDERRKWIQCFNDVTAIIFVVDSSDYNRLQEALNDFKSIWNNRWLRTISVILFLNKQDLLAEKVLAGKSKIEDYFPEFARYTTPEDATPEPGEDPRVTRAKYFIRDEFLRISTASGDGRHYCYPHFTCAVDTENARRVFNDCRDIIQRMHLRQYELL
modifications: MINI GS340
notes: mini Gs199 with I372A
Mini Gs basal Tm (GDP-bound state, DSF) [1]: 66.6 ± 0.1 (n = 3) ° C.

B7: Mini Gs350: mini Gs199 with L63Y (protein)
chain: MGHHHHHHANKKIEKQLQKDKQVYRATHRLLLLGADNSGKSTIVKQMRIYHGGGGGGGGTSGIFETKFQVDKVNFHMFDVGGQRDERRKWIQCFNDVTAIIFVVDSSDYNRLQEALNDFKSIWNNRWLRTISVILFLNKQDLLAEKVLAGKSKIEDYFPEFARYTTPEDATPEPGEDPRVTRAKYFIRDEFLRISTASGDGRHYCYPHFTCAVDTENIRRVFNDCRDIIQRMHLRQYELL
modifications: MINI GS350
notes: mini Gs199 with L63Y
Mini Gs basal Tm (GDP-bound state, DSF) [1]: 70.7 ± 0.0 (n = 3) ° C.

B8: Mini-Go112: mini-G protein of Go1, construct 12; SEQ ID NO:113 (protein)
chain: MGHHHHHHENLYFQGIEKNLKEDGISAAKDVKLLLLGADNSGKSTIVKQMKIIHGGSGGSGGTTGIVETHFTFKNLHFRLFDVGGQRSERKKWIHCFEDVTAIIFCVDLSDYNRMHESLMDFDSICNNKFFIDTSIILFLNKKDLFGEKIKKSPLTICFPEYTGPNTYEDAAAYIQAQFESKNRSPNKEIYCHMTCATDTNNAQVIFDAVTDIIIANNLRGCGLY
modifications: Mini-Go112
Stability measured by DSF ([1]; listed as Go1 12): 63.8 ± 0.1 °C | Stability measured by DSF ([1]; listed as mini-Go1): 64 °C | Stability in detergent measured by native DSF, 0.1% DDM [2]: 32.6 ± 0.2 °C | Stability in detergent measured by native DSF, 0.1% LMNG [2]: 40.7 ± 0.1 °C | Stability in detergent measured by native DSF, No detergent [2]: 43.6 ± 0.2 °C

B9: Mini-Golf6: mini-G protein of Golf, 7 point mutations and 3 deletions from mini-Gs; SEQ ID NO:105 (protein)
chain: MGHHHHHHENLYFQGIEKQLQKERLAYKATHRLLLLGADNSGKSTIVKQMRILHGGSGGSGGTSGIFETRFQVDKVNFHMFDVGGQRDERRKWIQCFNDVTAIIYVADCSDYNRLRESLDDFESIWNNRWLRTISIILFLNKQDMLAEKVLAGKSKIEDYFPEYANYTVPEDATPDAGEDPKVTRAKFFIRDLFLRISTATGDGKHYCYPHFTCAVDTENARRIFNDCRDIIQRMHLKQYELL
modifications: Mini-Golf6
Stability measured by DSF ([1]; listed as Golf 6): 64.8 ± 0.4 °C | Stability measured by DSF ([1]; listed as mini-Golf): 65 °C | Stability in detergent measured by native DSF, 0.1% DDM [2]: 37.4 ± 0.2 °C | Stability in detergent measured by native DSF, 0.1% LMNG [2]: 41.9 ± 0.0 °C | Stability in detergent measured by native DSF, No detergent [2]: 44.3 ± 0.1 °C

B10: Mini Gs399: mini Gs393 with N-terminal residues 6-25 replaced and L272D reversed; binds Gβγ (protein)
chain: MGHHHHHHENLYFQGNSKTEDQRNEEKAQREANKKIEKQLQKDKQVYRATHRLLLLGADNSGKSTIVKQMRILHGGSGGSGGTSGIFETKFQVDKVNFHMFDVGGQRDERRKWIQCFNDVTAIIFVVDSSDYNRLQEALNLFKSIWNNRWLRTISVILFLNKQDLLAEKVLAGKSKIEDYFPEFARYTTPEDATPEPGEDPRVTRAKYFIRDEFLRISTASGDGRHYCYPHFTCAVDTENARRIFNDCRDIIQRMHLRQYELL
modifications: MINI GS399
Stability measured by DSF [1]: 71.6 ± 0.0 °C

B11: mini-Gs/o_16: mini-Gs/o1 chimera construct 16; SEQ ID NO:139 (protein)
chain: MGHHHHHHENLYFQGNSKTEDQRNEEKAQREANKKIEKQLQKDKQVYRATHRLLLLGADNSGKSTIVKQMRILHGGSGGSGGTSGIFETKFQVDKVNFHMFDVGGQRDERRKWIQCFNDVTAIIFVVDSSDYNRLQEALNLFKSIWNNRWLRTISVILFLNKQDLLAEKVLAGKSKIEDYFPEFARYTTPEDATPEPGEDPRVTRAKYFIRDEFLRISTASGDGRHYCYPHFTCAVDTENARRIFNDVTDIIIAMNLRGCGLY
modifications: miniGs/o_16
Stability measured by DSF [1]: 69.0 ± 0.1 °C

B12: Mini-Gs/i148: mini-Gs/i1 chimera construct 48; SEQ ID NO:112 (protein)
chain: MGHHHHHHENLYFQGNSKTEDQRNEEKAQREANKKIEKQLQKDKQVYRATHRLLLLGADNSGKSTIVKQMRILHGGSGGSGGTSGIFETKFQVDKVNFHMFDVGGQRDERRKWIQCFNDVTAIIFVVDSSDYNRLQEALNLFKSIWNNRWLRTISVILFLNKQDLLAEKVLAGKSKIEDYFPEFARYTTPEDATPEPGEDPRVTRAKYFIRDEFLRISTASGDGRHYCYPHFTCAVDTENARRIFNDVTDIIIKMNLRDCGLF
modifications: Mini-Gs/i148
Stability measured by DSF [1]: 72.1 ± 0.1 °C

B13: Mini-G128: mini-G protein of G12, construct 8; SEQ ID NO:114 (protein)
chain: MGHHHHHHENLYFQGIDALLARERRAVRRLVKILLLGADNSGKSTFLKQMRIIHGGSGGSGGTKGIVEHDFVIKKIPFKMVDVGGQRSQRQKWFQCFDGITSILFMVDSSDYNRLVESMNDFETIVNNKLFFNVSIILFLNKMDLLVEKVKTVSIKKHFPDFRGDPHRLEDVQRYLVQCFDRKRRNRSKPLFHHFTTAIDTENARFIFHAVKDTILQENLKDIMLQ
modifications: Mini-G128
Stability measured by DSF [1]: 73 °C | Stability measured by DSF ([1]; listed as Gl2 8): 72.6 ± 0.3 °C | Stability in detergent measured by native DSF, 0.1% DDM [2]: 41.2 ± 0.2 °C | Stability in detergent measured by native DSF, 0.1% LMNG [2]: 46.0 ± 0.1 °C | Stability in detergent measured by native DSF, No detergent [2]: 50.3 ± 0.1 °C
